What was measured:
P27838 [1] = assay: dynamic light scattering; CyaY 2 mg/ml (0.16 mM) with ammonium iron (II) sulfate, Fe2+:protein 1:1, 2:1, 4:1, 6:1, 8:1, 10:1; 1 h at 30°C; volume distribution; conditions: other: dynamic light scattering
P27838 [2] = assay: dynamic light scattering; CyaY with Fe2+ 6:1 (DFO also 8:1) for 15 min, then chelator (deferiprone, DFO or BIPY) at 3 times the amount of iron; conditions: other: dynamic light scattering

B1: E. coli frataxin CyaY (protein)
chain: MNDSEFHRLADQLWLTIEERLDDWDGDSDIDCEINGGVLTITFENGSKIIINRQEPLHQVWLATKQGGYHFDLKGDEWICDRSGETFWDLLEQAATQQAGETVSFR
% of particles with hydrodynamic radius 3.0–5.9 nm (oligomers), with iron (Fe2+ 6:1) (P27838 [1]): 77%
% of particles with hydrodynamic radius 6–8.5 nm (oligomers), with iron (Fe2+ 8:1) (P27838 [1]): about 74% of the particles having a hydrodynamic radius in the range of 6–8.5 nm
% of particles with hydrodynamic radius 8.5–14 nm (oligomers), with iron (Fe2+ 6:1) (P27838 [1]): 23%
% of particles with hydrodynamic radius 8.5–14 nm (oligomers), with iron (Fe2+ 8:1) (P27838 [1]): (25% and 1%, respectively, not shown)
% of particles with hydrodynamic radius 8.5–14 nm (oligomers), with iron (Fe2+ 10:1) (P27838 [1]): 8.5–14 nm (83%)
% of particles with hydrodynamic radius 26–40 nm (oligomers), with iron (Fe2+ 10:1) (P27838 [1]): 26–40 nm (17%)
% of particles with hydrodynamic radius >100 nm, with iron (Fe2+ 8:1) (P27838 [1]): (25% and 1%, respectively, not shown)
% of particles in the monomer range (hydrodynamic radius 1.6–2.1 nm), with iron (Fe2+ 6:1) and BIPY (P27838 [2]): 76%
% of particles in the monomer range (hydrodynamic radius 1.6–2.1 nm), with iron (Fe2+ 6:1) and DFO (P27838 [2]): 93%
% of particles with hydrodynamic radius 2.2–2.9 nm (smaller oligomers), with iron (Fe2+ 6:1) and deferiprone (P27838 [2]): 95%
% of particles with hydrodynamic radius 6.0–8.5 nm (oligomers), with iron (Fe2+ 6:1) and BIPY (P27838 [2]): 24%
% of particles with hydrodynamic radius 6.0–8.5 nm (oligomers), with iron (Fe2+ 6:1) and DFO (P27838 [2]): 7%
% of particles with hydrodynamic radius 8.5–14 nm (oligomers), with iron (Fe2+ 6:1) and deferiprone (P27838 [2]): 5%
% of particles with hydrodynamic radius 8.5–14 nm (oligomers), with iron (Fe2+ 8:1) and DFO (P27838 [2]): (8.5–14 nm, 100%, Fig 3B)

From publication PMC5714350
